Laboratory results published in the RNAGym collection of RNA variant scans (doi:10.1073/pnas.2313332121).

B1: TPR t1 (parent)
chain: GACCAAUCUGCCCUCAGAGCUCGAGAACAUCUUCGGAUGCAGAGGAGGCAGGCUUCGGUGGCGCGAUAGCGCCAACGUCCUCAACCUCCAAUGCAUCCCACCACAUGAUGAUGCCUGAAGAGCCUUGGUUUUUUG

Variants of: B1
Test: polymerase ribozyme fitness, log enrichment relative to wild type (log ratio); higher = more active; in vitro selection for triplet polymerase activity
Method in brief: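 A heterodimeric triplet polymerase ribozyme had each of its subunits mutagenized by PCR into a library, which was transcribed. One round of in vitro selection, done in triplicate, annealed each library with a biotinylated primer, its partner subunit and triplets, then incubated it frozen at −7 °C before gel excision of extended constructs, streptavidin-bead capture and RT-PCR. Fitness is the logarithm of genotype enrichment relative to wild-type enrichment, based on Illumina sequencing of inputs and outputs and inverse-variance-weighted replicate averages. A base-2 logarithm is used, and genotypes were kept only with ≥10 input reads and ≥1 read per output.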

Row | Variant | polymerase ribozyme fitness (log ratio)
1 | A2G C13U A91C G122A | -0.77
2 | A2C C15A A27C C31A G51U A84C C99G A121U U130G | -6.15
3 | A2U C8U G69U C82G C114U | -2.12
4 | C3A C8A C12A G61A | -1.5
5 | A2G A74U C89G U112A | -1.32
6 | C3G C102U C123A | -2.99
7 | C3A C104U | -0.516
8 | C3A G120A U130C | 0.403
9 | C3U A16U G71A | -2.38
10 | A2U C8G A27C G36C C40G G60A G93C G110U U130G | -5.89
11 | C3U C11U C13G G63C U116C | -4.43
12 | C3A C12A G58A A83C | -2.19
13 | C3U A50C A74C U96G | -1.84
14 | A2U A6G C12U A24G C56A C97U | -3.05
15 | C3U A16C G17A U54C U78C A90C | -2.6
16 | A2U A37G G61A U87G | -2.89
17 | A2C C49A G93U G110A | -4.44
18 | C3U A6C U55C | -1.74
19 | A2C G52C | -2.58
20 | A2C U54C G110A | -3.04
21 | A2G C22A | -4.99

Row | Variant | polymerase ribozyme fitness (log ratio)
22 | A2U G60A A91G C124U | -3.61
23 | A2G C11A C56G | -1.58
24 | C3G C12G C53A G61U C114G | -5.41
25 | A2C U33A C97A U106A G120C U126A | -6.8
26 | A2G A29G G71A A90C | -3.65
27 | A2U G61A G127C | -1.88
28 | A2G C82A A111U | -4.1
29 | A2C C12G C115A U125A | -2.05
30 | A2G U9C C13U A18U C56G C72G A95G | -4.64
31 | C3G C56U U92G C123A | -3.5
32 | C3A C64U G71A G110U U129G | -6.8
33 | A2G G122A U129C | -1.77
34 | C3U C4A C53G C88U A90C C123A U130C | -0.356
35 | C3G C97U | -2.53
36 | A2U C102U G113A U129A | -2.88
37 | C3A C53G | -1.72
38 | A2U C76A | -3.43
39 | A2C C3G G52U G60A U129A | -5.23
40 | A2G C8A G51U U59G | -2.18
41 | C3U C13G A90U | -1.11
42 | A2U G42A A83U C88U | -5.05

Row | Variant | polymerase ribozyme fitness (log ratio)
43 | A2G G10U A43U C62G C79U | -3.6
44 | C3G C49U U78A C115A | -3.75
45 | A2C C89G | -3.68
46 | C3U A18U C89U G120C G122U | -3.19
47 | C3U C11G C12A A50U C56G G113U | -6.33
48 | A2U C13A C73G | -5.15
49 | C3G A50C C73A A95U | -2.64
50 | A2C U7A G10U C98U | -4.07
51 | A2C U59C C73A U131A | -2.5
52 | A2U C12U G110A U129C | -1.58
53 | C3A A5C G48A C101A G122A | -1.86
54 | A2U A16U U96A G128A | -4.83
55 | C3U C56G C73U | -1.31
56 | A2C G110A A121C | -2.66
57 | C3A C8G C88U A90C G110A U132A | -2.77
58 | A2G C13U C53U | -0.428
59 | C3U C12U A46G A50G C101A C104U | -0.987
60 | A2G C13U | 0.291
61 | A2G C13U A46U C86A G113U G120U C123G | -4.13
62 | C3A C13G C89U G128C | -3.62
63 | C3G G60C C86A | -2.81

Row | Variant | polymerase ribozyme fitness (log ratio)
64 | C3G C8G C12U C79U G110C U130A | -5.96
65 | A2C C3U | -1.71
66 | A2U A46U G47C G71A U132C | -3.81
67 | C3U C56U C115U G127U | -3.57
68 | A2U C82U C86G A121G | -0.832
69 | A2U C72U G110A | -4.59
70 | C3U A6U G52U A111U A118U | -4.02
71 | A2U G51A C123A | -4.9
72 | C3U C70A U78C A91C C97G A121U | -6.74
73 | A2G G51A C73G | -2.89
74 | A2C A24G A29C G47U G120A | -5.73
75 | C3U A41G C102A G120A | -3.46
76 | C3A G48A C72U A84G | -1.58
77 | A2G A27U C79G C104U | -4.76
78 | A2C A37U C56G G69A U78G G120U | -5.2
79 | A2U G58C C72G C88U | -4.39
80 | A2C G19A A29C A41G A43U C64G G113A C123A U126G | -5.93
81 | A2C C88G C104A U112G | -4.8
82 | C3U C8G G10U G45C G71U C85A | -2.2
83 | C3U C56G | -0.409
